In the supplement of paper PMC5998384:

Experiments:
HeLa Kyoto [1] = experiment: solubility in G1/S (NP-40 vs SDS abundance) (log2 ratio); higher = more soluble; details: cell cycle stage: G1/S
HeLa Kyoto [2] = experiment: melting temperature (median over replicates), in situ; higher = more thermally stable
HeLa Kyoto [3] = experiment: solubility change mitosis vs G1/S (difference of NP-40 vs SDS log2 ratios) (log2 ratio difference); higher = more soluble in mitosis
HeLa Kyoto [4] = experiment: thermal stability score vs G1/S (z-score of summed log2 fold changes over temperatures); higher = more thermally stable than in G1/S
[5] = cell cycle stage: early G1 (4.5 h after nocodazole release)
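Wherever melting temperature (median over replicates), in situ is given: HeLa Kyoto cells synchronized by double thymidine or nocodazole block, proteins quantified by TMT10plex mass spectrometry, three independent biological replicates.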
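Wherever solubility change mitosis vs G1/S (difference of NP-40 vs SDS log2 ratios) is given: synchronized HeLa Kyoto cells (double thymidine block for G1/S, nocodazole release for mitosis), protein amounts in NP-40 versus SDS lysates quantified by mass spectrometry, three biological replicates.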
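Wherever solubility in G1/S (NP-40 vs SDS abundance) is given: HeLa Kyoto cells arrested at G1/S by double thymidine block, proteins quantified by TMT10plex mass spectrometry in mild NP-40 versus SDS extracts, three biological replicates.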
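Wherever thermal stability score vs G1/S (z-score of summed log2 fold changes over temperatures) is given: synchronized HeLa Kyoto cells, proteins quantified by TMT10plex mass spectrometry, three biological replicates, mitosis taken 0.5 h after nocodazole release, G1/S directly after double thymidine block.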

Sequence	solubility in G1/S (log2) (HeLa Kyoto [1])	melting temperature (HeLa Kyoto [2]; cell cycle stage: G1/S)	melting temperature (HeLa Kyoto [2]; cell cycle stage: mitosis)	solubility change mitosis (log2) (HeLa Kyoto [3])	thermal stability score (HeLa Kyoto [4]; [5])	thermal stability score (HeLa Kyoto [4]; cell cycle stage: mitosis)
MVPLVAVVSGPRAQLFACLLRLGTQQVGPLQLHTGASHAARNHYEVLVLGGGSGGITMAARMKRKVGAENVAIVEPSERHFYQPIWTLVGAGAKQLSSSGRPTASVIPSGVEWIKARVTELNPDKNCIHTDDDEKISYRYLIIALGIQLDYEKIKGLPEGFAHPKIGSNYSVKTVEKTWKALQDFKEGNAIFTFPNTPVKCAGAPQKIMYLSEAYFRKTGKRSKANIIFNTSLGAIFGVKKYADALQEIIQERNLTVNYKKNLIEVRADKQEAVFENLDKPGETQVISYEMLHVTPPMSPPDVLKTSPVADAAGWVDVDKETLQHRRYPNVFGIGDCTNLPTSKTAAAVAAQSGILDRTISVIMKNQTPTKKYDGYTSCPLVTGYNRVILAEFDYKAEPLETFPFDQSKERLSMYLMKADLMPFLYWNMMLRGYWGGPAFLRKLFHLGMS [SQRDL]	0.148	54.3 °C	54.3 °C	-0.0579	0.51	-4.29
MVPRLLLRAWPRGPAVGPGAPSRPLSAGSGPGQYLQRSIVPTMHYQDSLPRLPIPKLEDTIRRYLSAQKPLLNDGQFRKTEQFCKSFENGIGKELHEQLVALDKQNKHTSYISGPWFDMYLSARDSVVLNFNPFMAFNPDPKSEYNDQLTRATNMTVSAIRFLKTLRAGLLEPEVFHLNPAKSDTITFKRLIRFVPSSLSWYGAYLVNAYPLDMSQYFRLFNSTRLPKPSRDELFTDDKARHLLVLRKGNFYIFDVLDQDGNIVSPSEIQAHLKYILSDSSPAPEFPLAYLTSENRDIWAELRQKLMSSGNEESLRKVDSAVFCLCLDDFPIKDLVHLSHNMLHGDGTNRWFDKSFNLIIAKDGSTAVHFEHSWGDGVAVLRFFNEVFKDSTQTPAVTPQSQPATTDSTVTVQKLNFELTDALKTGITAAKEKFDATMKTLTIDCVQFQRGGKEFLKKQKLSPDAVAQLAFQMAFLRQYGQTVATYESCSTAAFKHGRTETIRPASVYTKRCSEAFVREPSRHSAGELQQMMVECSKYHGQLTKEAAMGQGFDRHLFALRHLAAAKGIILPELYLDPAYGQINHNVLSTSTLSSPAVNLGGFAPVVSDGFGVGYAVHDNWIGCNVSSYPGRNAREFLQCVEKALEDMFDALEGKSIKS [CPT2]	0.115	50 °C	50 °C	-0.135	-0.368	0.841
MVPSRRTWNLGATPSLRGLWRVGRAPEPEPGMARPAPAPASPAARPFPHTGPGRLRTGRGKDTPVCGDEDSSARSAARPALAQCRALSVDWAGPGSPHGLYLTLQVEHLKEKLISQAQEVSRLRSELGGTDLEKHRDLLMVENERLRQEMRRCEAELQELRTKPAGPCPGCEHSQESAQLRDKLSQLQLEMAESKGMLSELNLEVQQKTDRLAEVELRLKDCLAEKAQEEERLSRRLRDSHETIASLRAQSPPVKYVIKTVEVESSKTKQALSESQARNQHLQEQVAMQRQVLKEMEQQLQSSHQLTARLRAQIAMYESELERAHGQMLEEMQSLEEDKNRAIEEAFARAQVEMKAVHENLAGVRTNLLTLQPALRTLTNDYNGLKRQVRGFPLLLQEALRSVKAEIGQAIEEVNSNNQELLRKYRRELQLRKKCHNELVRLKGNIRVIARVRPVTKEDGEGPEATNAVTFDADDDSIIHLLHKGKPVSFELDKVFSPQASQQDVFQEVQALVTSCIDGFNVCIFAYGQTGAGKTYTMEGTAENPGINQRALQLLFSEVQEKASDWEYTITVSAAEIYNEVLRDLLGKEPQEKLEIRLCPDGSGQLYVPGLTEFQVQSVDDINKVFEFGHTNRTTEFTNLNEHSSRSHALLIVTVRGVDCSTGLRTTGKLNLVDLAGSERVGKSGAEGSRLREAQHINKSLSALGDVIAALRSRQGHVPFRNSKLTYLLQDSLSGDSKTLMVVQVSPVEKNTSETLYSLKFAERVRSVELGPGLRRAELGSWSSQEHLEWEPACQTPQPSARAHSAPSSGTSSRPGSIRRKLQPSGKSRPLPV [KIFC3]	-0.0691	49.1 °C	47.3 °C	0.169	0.116	0.946
MVRKKNPPLRNVASEGEGQILEPIGTESKVSGKNKEFSADQMSENTDQSDAAELNHKEEHSLHVQDPSSSSKKDLKSAVLSEKAGFNYESPSKGGNFPSFPHDEVTDRNMLAFSSPAAGGVCEPLKSPQRAEADDPQDMACTPSGDSLETKEDQKMSPKATEETGQAQSGQANCQGLSPVSVASKNPQVPSDGGVRLNKSKTDLLVNDNPDPAPLSPELQDFKCNICGYGYYGNDPTDLIKHFRKYHLGLHNRTRQDAELDSKILALHNMVQFSHSKDFQKVNRSVFSGVLQDINSSRPVLLNGTYDVQVTSGGTFIGIGRKTPDCQGNTKYFRCKFCNFTYMGNSSTELEQHFLQTHPNKIKASLPSSEVAKPSEKNSNKSIPALQSSDSGDLGKWQDKITVKAGDDTPVGYSVPIKPLDSSRQNGTEATSYYWCKFCSFSCESSSSLKLLEHYGKQHGAVQSGGLNPELNDKLSRGSVINQNDLAKSSEGETMTKTDKSSSGAKKKDFSSKGAEDNMVTSYNCQFCDFRYSKSHGPDVIVVGPLLRHYQQLHNIHKCTIKHCPFCPRGLCSPEKHLGEITYPFACRKSNCSHCALLLLHLSPGAAGSSRVKHQCHQCSFTTPDVDVLLFHYESVHESQASDVKQEANHLQGSDGQQSVKESKEHSCTKCDFITQVEEEISRHYRRAHSCYKCRQCSFTAADTQSLLEHFNTVHCQEQDITTANGEEDGHAISTIKEEPKIDFRVYNLLTPDSKMGEPVSESVVKREKLEEKDGLKEKVWTESSSDDLRNVTWRGADILRGSPSYTQASLGLLTPVSGTQEQTKTLRDSPNVEAAHLARPIYGLAVETKGFLQGAPAGGEKSGALPQQYPASGENKSKDESQSLLRRRRGSGVFCANCLTTKTSLWRKNANGGYVCNACGLYQKLHSTPRPLNIIKQNNGEQIIRRRTRKRLNPEALQAEQLNKQQRGSNEEQVNGSPLERRSEDHLTESHQREIPLPSLSKYEAQGSLTKSHSAQQPVLVSQTLDIHKRMQPLHIQIKSPQESTGDPGNSSSVSEGKGSSERGSPIEKYMRPAKHPNYSPPGSPIEKYQYPLFGLPFVHNDFQSEADWLRFWSKYKLSVPGNPHYLSHVPGLPNPCQNYVPYPTFNLPPHFSAVGSDNDIPLDLAIKHSRPGPTANGASKEKTKAPPNVKNEGPLNVVKTEKVDRSTQDELSTKCVHCGIVFLDEVMYALHMSCHGDSGPFQCSICQHLCTDKYDFTTHIQRGLHRNNAQVEKNGKPKE [TRPS1]	0.00718	51.1 °C	51.9 °C	-0.0534	0.487	0.962
MVRTKTWTLKKHFVGYPTNSDFELKTAELPPLKNGEVLLEALFLTVDPYMRVAAKRLKEGDTMMGQQVAKVVESKNVALPKGTIVLASPGWTTHSISDGKDLEKLLTEWPDTIPLSLALGTVGMPGLTAYFGLLEICGVKGGETVMVNAAAGAVGSVVGQIAKLKGCKVVGAVGSDEKVAYLQKLGFDVVFNYKTVESLEETLKKASPDGYDCYFDNVGGEFSNTVIGQMKKFGRIAICGAISTYNRTGPLPPGPPPEIVIYQELRMEAFVVYRWQGDARQKALKDLLKWVLEGKIQYKEYIIEGFENMPAAFMGMLKGDNLGKTIVKA [PTGR1]	0.248	53.2 °C	53.5 °C	-0.225	0.13	-1.48
MVVFGYEAGTKPRDSGVVPVGTEEAPKVFKMAASMHGQPSPSLEDAKLRRPMVIEIIEKNFDYLRKEMTQNIYQMATFGTTAGFSGIFSNFLFRRCFKVKHDALKTYASLATLPFLSTVVTDKLFVIDALYSDNISKENCVFRSSLIGIVCGVFYPSSLAFTKNGRLATKYHTVPLPPKGRVLIHWMTLCQTQMKLMAIPLVFQIMFGILNGLYHYAVFEETLEKTIHEE [TMEM126B]	-0.0998	55.9 °C	53.5 °C	0.00498	0.469	-1.3
MVWKRLGALVMFPLQMIYLVVKAAVGLVLPAKLRDLSRENVLITGGGRGIGRQLAREFAERGARKIVLWGRTEKCLKETTEEIRQMGTECHYFICDVGNREEVYQTAKAVREKVGDITILVNNAAVVHGKSLMDSDDDALLKSQHINTLGQFWTTKAFLPRMLELQNGHIVCLNSVLALSAIPGAIDYCTSKASAFAFMESLTLGLLDCPGVSATTVLPFHTSTEMFQGMRVRFPNLFPPLKPETVARRTVEAVQLNQALLLLPWTMHALVILKSILPQAALEEIHKFSGTYTCMNTFKGRT [DHRS3]	-0.137	54 °C	53.1 °C	-0.135	0.157	-0.582
MWGACKVKVHDSLATISITLRRYLRLGATMAKSKFEYVRDFEADDTCLAHCWVVVRLDGRNFHRFAEKHNFAKPNDSRALQLMTKCAQTVMEELEDIVIAYGQSDEYSFVFKRKTNWFKRRASKFMTHVASQFASSYVFYWRDYFEDQPLLYPPGFDGRVVVYPSNQTLKDYLSWRQADCHINNLYNTVFWALIQQSGLTPVQAQGRLQGTLAADKNEILFSEFNINYNNELPMYRKGTVLIWQKVDEVMTKEIKLPTEMEGKKMAVTRTRTKPVPLHCDIIGDAFWKEHPEILDEDS [THG1L]	-0.0679	53.3 °C	53.5 °C	-0.0698	0.242	-0.354
MWKASAGHAVSIAQDDAGADDWETDPDFVNDVSEKEQRWGAKTVQGSGHQEHINIHKLRENVFQEHQTLKEKELETGPKASHGYGGKFGVEQDRMDKSAVGHEYQSKLSKHCSQVDSVRGFGGKFGVQMDRVDQSAVGFEYQGKTEKHASQKDYSSGFGGKYGVQADRVDKSAVGFDYQGKTEKHESQRDYSKGFGGKYGIDKDKVDKSAVGFEYQGKTEKHESQKDYVKGFGGKFGVQTDRQDKCALGWDHQEKLQLHESQKDYKTGFGGKFGVQSERQDSAAVGFDYKEKLAKHESQQDYSKGFGGKYGVQKDRMDKNASTFEDVTQVSSAYQKTVPVEAVTSKTSNIRANFENLAKEKEQEDRRKAEAERAQRMAKERQEQEEARRKLEEQARAKTQTPPVSPAPQPTEERLPSSPVYEDAASFKAELSYRGPVSGTEPEPVYSMEAADYREASSQQGLAYATEAVYESAEAPGHYPAEDSTYDEYENDLGITAVALYDYQAAGDDEISFDPDDIITNIEMIDDGWWRGVCKGRYGLFPANYVELRQ [CTTN]	-0.21	60.6 °C	57.6 °C	-0.0191	-3.16	-3.35
MWLDRRGWLRVLGHWRYDLRRPSFTRTWSGDKGPMAETVSTQVGTEGGLRASHQQNGDAGGDAKVELSPGPPKPAGREVEPAPVGGEHPSAAAPGPGKHKKRRGATRERVVPPPKKRRTGVSFGDEHFAETSYYFEGGLRKVRPYYFDFRTYCKGRWVGHSLLHVFSTEFRAQPLAYYEAAVRAGRLQLNEKPVQDLNIVLKDNDFLRNTVHRHEPPVTAEPIRLLAENEDVVVVDKPSSIPVHPCGRFRHNTVIFILGKEHQLKELHPLHRLDRLTSGVLMFAKTAAVSERIHEQVRDRQLEKEYVCRVEGEFPTEEVTCKEPILVVSYKVGVCRVDPRGKPCETVFQRLSYNGQSSVVRCRPLTGRTHQIRVHLQFLGHPILNDPIYNSVAWGPSRGRGGYIPKTNEELLRDLVAEHQAKQSLDVLDLCEGDLSPGLTDSTAPSSELGKDDLEELAAAAQKMEEVAEAAPQELDTIALASEKAVETDVMNQETDPLCAECRLVRQDPLPQDLVMFLHALRYKGPGFEYFSPMPAWAQDDWQKD [RPUSD2]	-0.0296	54.1 °C	54.1 °C	0.0172	-1.46	-2.6
